The target of data set [1] is CXCR4 (chemokine receptor CXCR-4) on PM1 cells. The data set can be described thus: flow cytometry, PE-12G5 alone on PM1 cells, 30 min at 4° C. A general note: In flow cytometry, cells or beads pass a laser one at a time.
Data set [2] concerns Tat49-57 peptide (HIV-1). To be noted: CITED natural ligand affinity quoted for comparison, method not stated; cited from earlier work.
The subject of data set [3] is Rev peptide (Rev34-50, RhdRev) (HIV-1). The data set can be described thus: FP. To be noted: 10 nM tracer titrated with RNA, 85 mM NaCl, 2 mM KCl, 0.5 mM CaCl2, 0.5 mM MgCl2, 10 mM HEPES pH 7.5.
Data set [4] has as its system Rev34-50 peptide (HIV-1). To be noted: CITED natural ligand affinity quoted for comparison, method not stated; cited from earlier work.
For data set [5], the target named is CXCR4 (chemokine receptor CXCR-4) on PM1 cells. Kind of data set: flow cytometry, PE-conjugated isotype control on PM1 cells (non-specific fluorescence).

Sequence of CXCR4 (chemokine receptor CXCR-4) on PM1 cells (P61073 whole entry): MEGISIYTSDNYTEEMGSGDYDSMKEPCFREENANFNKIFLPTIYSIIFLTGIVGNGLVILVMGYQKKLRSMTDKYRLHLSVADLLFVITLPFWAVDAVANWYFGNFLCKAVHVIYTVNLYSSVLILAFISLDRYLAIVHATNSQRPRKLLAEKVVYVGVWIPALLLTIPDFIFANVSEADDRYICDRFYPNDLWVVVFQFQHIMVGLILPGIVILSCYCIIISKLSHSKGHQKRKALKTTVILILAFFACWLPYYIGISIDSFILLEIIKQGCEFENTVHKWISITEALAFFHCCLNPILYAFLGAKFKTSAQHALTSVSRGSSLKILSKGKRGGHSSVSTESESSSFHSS

The substance “anti-CXCR4 mAb, 12G5 (PharMingen, San Diego, Calif.) conjugated to phycoerithrine (PE) (antibody)” yielded an MFI (median fluorescence intensity) in data set [1] of 451 MFI. For orientation: Kd means the free concentration of one partner at which half of the binding sites on the other are occupied at equilibrium, for simple one-to-one binding. As to TAR RNA, the Kd in data set [2] is 12 nM; in data set [3] (table unit taken from text (7 nM)), 7.3 nM. With RRE IIB RNA, the Kd is 40 nM in data set [4] and 16.6 nM in data set [3] (text gives 16 nM).

For “PE-conjugated isotype control mAb (antibody)”, in data set [5], the MFI (median fluorescence intensity) was found to be 30 MFI.
